The assay deals with polyclonal anti-QRFSR antibody 3RBF-SAB. The assay can be described thus: competitive ELISA: free Opiorphin against coated Y-(PE)12-QRFSR for antibody 3RBF-SAB.

One may read the IC50 as the concentration that gives 50% inhibition.

Molecule QRFSR [Opiorphin QRFSR-peptide] gave an IC50 of 0.03 µg/mL.

These data come from patent publication US20120034604A1.
